According to patent publication US20230391845A1, “GLP-1, GIP AND GLUCAGON RECEPTOR TRIPLE AGONISTS” (priority 2020, published 2023):
Where no end group is shown, it is not given here. [ ]: non-standard residue; d: D form. Aib = CC(C)(N)C(=O)O

B1: Compound No. 30 (peptide)
peptide: H[Aib]HGTFTSDYSIYLEKKYA[Aib]EFVQWLLEGGPSSGAPPPS-NH2
modifications: not fully specified (residue 16); printed as H-Aib-HGTFTSDYSIYLE-K[(2S)-2-amino-6-[[(2S)-2-amino-6-[[(4S)-4-carboxy-4-(19-carboxynonadecanoylamino)butanoyl]amino]hexanoyl]amino]hexanoyl]-KYA-Aib-EFVQWLLEGGPSSGAPPPS-NH2
B2: Compound No. 33 (peptide)
peptide: H[Aib]HGTFTSDYSIYLEKKAA[Aib]EFVQWLLEGGPSSGAPPPS-NH2
modifications: not fully specified (residue 16); printed as H-Aib-HGTFTSDYSIYLE-K[(2S)-2-amino-6-[[(2S)-2-amino-6-[[(4S)-4-carboxy-4-(19-carboxynonadecanoylamino)butanoyl]amino]hexanoyl]amino]hexanoyl]-KAA-Aib-EFVQWLLEGGPSSGAPPPS-NH2

How the values were obtained:
[1] = glucagon: depending on the route of administration; cited from earlier work
[2] = target: human glucagon-like peptide 1 receptor (human, UniProt P43220 24-463); assay: cell-based or functional assay
[3] = target: T1, human glucose-dependent insulinotropic polypeptide receptor (human, UniProt P48546 22-466); assay: cell-based or functional assay
T1 sequence (looked up): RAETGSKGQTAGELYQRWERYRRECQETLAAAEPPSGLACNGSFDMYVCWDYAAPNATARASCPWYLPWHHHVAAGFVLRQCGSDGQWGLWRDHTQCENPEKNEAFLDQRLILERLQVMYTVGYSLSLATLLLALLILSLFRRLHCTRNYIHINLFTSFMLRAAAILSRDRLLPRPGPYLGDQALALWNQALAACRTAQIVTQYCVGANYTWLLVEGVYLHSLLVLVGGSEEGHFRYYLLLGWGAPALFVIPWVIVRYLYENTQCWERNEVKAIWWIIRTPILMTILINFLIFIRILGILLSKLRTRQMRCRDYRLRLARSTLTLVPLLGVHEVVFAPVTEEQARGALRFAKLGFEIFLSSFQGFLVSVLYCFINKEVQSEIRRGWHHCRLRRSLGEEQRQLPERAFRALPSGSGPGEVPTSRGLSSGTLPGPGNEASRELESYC

human glucagon receptor = human glucagon receptor (human, UniProt P47871 26-477); assay: cell-based or functional assay
human glucagon receptor, sequence (P47871 26-477): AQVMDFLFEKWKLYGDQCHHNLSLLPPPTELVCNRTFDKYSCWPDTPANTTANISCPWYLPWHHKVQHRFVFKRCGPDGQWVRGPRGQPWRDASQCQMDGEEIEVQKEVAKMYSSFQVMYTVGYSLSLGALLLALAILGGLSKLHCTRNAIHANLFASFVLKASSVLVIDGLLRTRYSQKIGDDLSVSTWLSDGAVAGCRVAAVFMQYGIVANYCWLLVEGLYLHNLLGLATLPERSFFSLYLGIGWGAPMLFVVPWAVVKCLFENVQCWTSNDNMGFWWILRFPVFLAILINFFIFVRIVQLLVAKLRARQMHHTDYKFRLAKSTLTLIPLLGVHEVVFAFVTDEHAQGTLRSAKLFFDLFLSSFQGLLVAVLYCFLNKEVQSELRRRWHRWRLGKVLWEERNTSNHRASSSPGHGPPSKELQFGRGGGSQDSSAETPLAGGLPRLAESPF

mouse GLP-1 receptor = target: T2, mouse GLP-1 receptor (mouse, UniProt O35659 22-463); assay: cell-based or functional assay
T2 sequence (looked up): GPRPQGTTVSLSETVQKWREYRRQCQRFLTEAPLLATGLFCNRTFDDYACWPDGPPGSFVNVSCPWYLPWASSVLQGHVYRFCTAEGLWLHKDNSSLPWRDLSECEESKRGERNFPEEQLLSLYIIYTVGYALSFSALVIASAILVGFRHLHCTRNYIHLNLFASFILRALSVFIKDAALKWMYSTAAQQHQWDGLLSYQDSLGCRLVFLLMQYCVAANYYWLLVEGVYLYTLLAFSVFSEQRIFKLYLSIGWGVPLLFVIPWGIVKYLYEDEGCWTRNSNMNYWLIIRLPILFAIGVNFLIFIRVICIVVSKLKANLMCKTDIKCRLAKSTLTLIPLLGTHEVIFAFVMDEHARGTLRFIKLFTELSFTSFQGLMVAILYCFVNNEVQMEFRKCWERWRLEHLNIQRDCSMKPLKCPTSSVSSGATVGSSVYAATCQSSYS

mouse GIP receptor = target: T3, mouse GIP receptor (mouse, UniProt Q0P543 19-460); assay: cell-based or functional assay
T3 sequence (looked up): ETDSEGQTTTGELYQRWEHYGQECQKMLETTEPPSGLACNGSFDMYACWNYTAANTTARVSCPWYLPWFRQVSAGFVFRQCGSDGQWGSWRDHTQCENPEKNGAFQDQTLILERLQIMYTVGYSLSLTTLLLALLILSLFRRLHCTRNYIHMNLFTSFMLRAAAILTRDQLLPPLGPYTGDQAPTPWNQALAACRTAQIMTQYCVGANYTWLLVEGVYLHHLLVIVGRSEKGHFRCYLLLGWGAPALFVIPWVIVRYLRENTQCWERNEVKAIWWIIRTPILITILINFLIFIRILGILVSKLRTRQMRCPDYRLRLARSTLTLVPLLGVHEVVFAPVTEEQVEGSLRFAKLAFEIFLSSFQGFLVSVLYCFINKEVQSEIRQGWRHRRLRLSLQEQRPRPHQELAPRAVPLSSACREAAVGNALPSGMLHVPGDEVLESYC

mouse Gcg receptor = mouse Gcg receptor (mouse, UniProt Q61606 27-485); assay: cell-based or functional assay
mouse Gcg receptor, sequence (Q61606 27-485): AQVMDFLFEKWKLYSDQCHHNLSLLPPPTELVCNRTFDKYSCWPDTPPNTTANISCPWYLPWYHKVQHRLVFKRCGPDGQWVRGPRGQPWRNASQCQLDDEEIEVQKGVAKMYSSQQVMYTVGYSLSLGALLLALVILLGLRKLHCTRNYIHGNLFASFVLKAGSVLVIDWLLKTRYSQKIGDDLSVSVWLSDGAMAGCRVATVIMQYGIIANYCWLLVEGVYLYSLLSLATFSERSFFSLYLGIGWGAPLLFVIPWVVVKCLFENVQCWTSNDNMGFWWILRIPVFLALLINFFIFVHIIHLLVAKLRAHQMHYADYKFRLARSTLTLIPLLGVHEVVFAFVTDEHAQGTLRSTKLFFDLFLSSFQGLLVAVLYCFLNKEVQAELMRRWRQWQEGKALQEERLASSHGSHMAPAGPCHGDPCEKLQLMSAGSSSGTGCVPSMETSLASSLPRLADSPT

Molecule | half-life as measured in man [1] | hGLP-1R CRE Luc EC50 (pM) [2] | hGIPR CRE Luc EC50 (pM) [3] | hGcgR CRE Luc EC50 (pM) (human glucagon receptor) | mGLP-1R CRE Luc EC50 (pM) (mouse GLP-1 receptor) | mGIPR CRE Luc EC50 (pM) (mouse GIP receptor) | mGcgR CRE Luc EC50 (pM) (mouse Gcg receptor)
CC[C@H](C)[C@H](NC(=O)[C@H](CO)NC(=O)[C@H](Cc1ccc(O)cc1)NC(=O)[C@H](CC(=O)O)NC(=O)[C@H](CO)NC(=O)[C@@H](NC(=O)[C@H](Cc1ccccc1)NC(=O)[C@@H](NC(=O)CNC(=O)[C@H](CCC(=O)O)NC(=O)[C@H](C)NC(=O)[C@@H](N)Cc1ccc(O)cc1)[C@@H](C)O)[C@@H](C)CC)C(=O)N[C@@H](C)C(=O)N[C@@H](CCSC)C(=O)N[C@@H](CC(=O)O)C(=O)N[C@@H](CCCCN)C(=O)N[C@H](C(=O)N[C@@H](Cc1c[nH]cn1)C(=O)N[C@@H](CCC(N)=O)C(=O)N[C@@H](CCC(N)=O)C(=O)N[C@@H](CC(=O)O)C(=O)N[C@@H](Cc1ccccc1)C(=O)N[C@H](C(=O)N[C@@H](CC(N)=O)C(=O)N[C@@H](Cc1c[nH]c2ccccc12)C(=O)N[C@@H](CC(C)C)C(=O)N[C@@H](CC(C)C)C(=O)N[C@@H](C)C(=O)N[C@@H](CCC(N)=O)C(=O)N[C@@H](CCCCN)C(=O)NCC(=O)N[C@@H](CCCCN)C(=O)N[C@@H](CCCCN)C(=O)N[C@@H](CC(N)=O)C(=O)N[C@@H](CC(=O)O)C(=O)N[C@@H](Cc1c[nH]c2ccccc12)C(=O)N[C@@H](CCCCN)C(=O)N[C@@H](Cc1c[nH]cn1)C(=O)N[C@@H](CC(N)=O)C(=O)N[C@H](C(=O)N[C@H](C(=O)N[C@@H](CCC(N)=O)C(=O)O)[C@@H](C)O)[C@@H](C)CC)C(C)C)[C@@H](C)CC [hGIP, Native Human GIP] | 5 to 7 min |  |  |  |  |  | 
H[Aib]HGTFTSDYSIYLEKQAA[Aib]EFVQWLLEGGPSSGAPPPS-NH2 (not fully specified (residue 16)) [Compound No. 21] |  | 3 pM | 3.2 pM | 26.6 pM | 2.9 pM | 9.8 pM | 56.1 pM
B1 |  | 3.9 pM | 15.6 pM | 9.3 pM | 2.6 pM | 11.2 pM | 5.7 pM
B2 |  | 3.3 pM | 7.3 pM | 13.7 pM | 2.2 pM | 10 pM | 8.1 pM
